# In IntAct's records for PubMed 20956287:
# B1: SH2 domain-containing protein 3C (Mus musculus), Q9QZS8-1 (parent)
# chain: MTEMPKKTGRKFKFFKFKGLGSLSNLPRSFSLRRSSASASIRSCPEPDTFEATQDDMVTLPKSPPAYARSSDMYSHMGTMPRPNIKKAQKQQAVQKAQEVSRESHLVSRRLPEPPDLEAAKEAGEGTEALLEDTAPSAVEVDPMRELEDLTVDTEKEQVPGDVSPERTAAELEAAGDYVKFSKEKYILDSSPEKLHKELEEELKLSSTDLRSHAWYHGRIPREVSETLVQRNGDFLIRDSLTSLGDYVLTCRWHNQALHFKINKVVVKAGESYTHIRYLFEQESFDHVPALVRYHVGSRKAVSEQSGAIIYCPVNRTFPLRYLEASYGLSQGSSKTASPASPSGSKGSHMKRRSITMTDGLTTDKVTRSDGCPNSTSLPHPRDSIRNCALSMDQIPDLHSPLSPISESPSSPAYSTVTRVHAPSATPSTSAQPASPVARRSSEPQLCPGNTPKPPGESDRAPHASPSHTLCKASPSPSLSSYSDPDSGHYCQLQPPVRGSREQAAGETPRKARGSGERQKELLENGVSDGEWGKTFTVPVVEATSSFNLATFQSQLIPKENRPLEVALLRKVKELLSEVDARTLARHVTKVDCLVARILGVTKEMQTLMGVRWGMELLTLPHGRQLRLDLLERFHTMSIMLAVDILGCTGSAEERAALLHKTIQLAAELRGTMGNMFSFAAVMGALEMAQISRLEQTWMTLRQRHTEGAILYEKKLKPFLKSLNEGKEGPPLSNTTFPHVLPFITLLECDSAPAEGPEPWGSTEHGVEVVLAHLEAARTVAHHGGLYHTNAEVKLQGFQARPELLEVFSTEFQMRLLWGSQGANSSQAWRYEKFDKVLTALSHKLEPAIRSSEL
# partner: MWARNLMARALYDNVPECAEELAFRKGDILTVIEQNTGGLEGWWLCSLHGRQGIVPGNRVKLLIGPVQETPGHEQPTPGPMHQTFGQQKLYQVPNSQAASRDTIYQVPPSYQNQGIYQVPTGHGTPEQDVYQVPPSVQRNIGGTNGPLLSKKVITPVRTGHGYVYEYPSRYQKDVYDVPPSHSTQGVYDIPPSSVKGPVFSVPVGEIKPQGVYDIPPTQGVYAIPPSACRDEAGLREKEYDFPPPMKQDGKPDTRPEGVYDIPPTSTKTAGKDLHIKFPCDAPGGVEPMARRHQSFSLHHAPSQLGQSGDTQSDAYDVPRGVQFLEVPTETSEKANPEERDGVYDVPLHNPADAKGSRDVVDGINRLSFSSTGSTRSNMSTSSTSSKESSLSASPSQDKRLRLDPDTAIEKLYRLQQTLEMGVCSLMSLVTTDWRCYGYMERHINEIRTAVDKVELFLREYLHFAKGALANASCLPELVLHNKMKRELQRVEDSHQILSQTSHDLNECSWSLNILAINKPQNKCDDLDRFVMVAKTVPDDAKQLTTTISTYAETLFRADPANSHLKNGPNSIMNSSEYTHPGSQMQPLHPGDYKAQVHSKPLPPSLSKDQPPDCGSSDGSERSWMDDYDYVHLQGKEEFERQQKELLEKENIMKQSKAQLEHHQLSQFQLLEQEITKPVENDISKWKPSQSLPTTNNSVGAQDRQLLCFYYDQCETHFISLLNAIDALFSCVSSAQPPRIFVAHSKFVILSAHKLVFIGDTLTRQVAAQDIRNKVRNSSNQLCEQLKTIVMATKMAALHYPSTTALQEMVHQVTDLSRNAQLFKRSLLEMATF
# Variants of: B1
# Settings: with casl_mouse Nedd9, O35177
row,Variant,effect of a mutation on the interaction
1,Y787E,disrupting interaction
